Kd data for 1 substance are collected here from publication PMC9596850, “Tonsillar Microbiome‐Derived Lantibiotics Induce Structural Changes of IL‐6 and IL‐21 Receptors and Modulate Host Immunity” (Advanced Science, 2022).

Read-outs that look alike come from different tables or passages of the source.

Experiment [1] has as its target mouse IL-21 receptor protein with the Fc region of human IgG1 (mouse) (UniProt Q9JHX3). Nature of the experiment: SPR; Biacore 8K; receptor immobilised on CM5 chip by amine coupling, 25 °C, PBS-P running buffer; analytes with 5% DMSO injected serially; steady-state affinity model.
The target is the same in experiment [2]. The description is as above. This is another data set of the same source.

The term Kd denotes the free concentration of one partner at which half of the binding sites on the other are occupied at equilibrium, for simple one-to-one binding. A low value points to tighter binding.

As to salivaricin A2 (peptide), the Kd in experiment [1] amounted to 29.4 µM; in experiment [2] it was 12.6 µM.
